# Reference: the supplement of paper PMC9170038
# Test system: MS2 coat protein
# Test: apparent KD of MS2 coat protein, switch ON state; designed switch direction (-1 OFF switch, 1 ON switch): 1; higher = weaker reporter binding
# Conditions: FMN input: 0 or 200 uM; Eterna round: R93 (includes R88 designs)
# Summary of the method: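 Illumina sequencing clusters were used for on-chip transcription of designed RNA switches. Titration with SNAP-549-labelled MS2 coat protein followed, in twofold steps from 0.7 or 1.5 nM to 3 µM in 100 mM Tris-HCl pH 7.5, 80 mM KCl, 4 mM MgCl2, without or with constant ligand. Apparent KD is each design's median of fits to normalised cluster binding curves.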
row,Sequence,apparent KD of MS2 coat protein
1,AACCGCGCUAUACAGGAUAUCACAAUAUCGACAUGAGGAUCACCCAUGUGACUGGCACCAGUCGGUGAGAAGGGUGAAGUGCGGC [Tilemage],149 nM
2,GUGAGACAUGAGGAUCACCCAUGUACGCGUCAGCAAGGAUAUGGGAAUAAAAGACAGAGACCAGAAGGUGCUGUUG [Arzaerri],22.9 nM
3,AUAAAACAUGAGGAUCACCCAUGUAGCUAAAGCACAGGAUAUAGGAGUCCGAGCAGACAUCUAGAAGGGUGGAAAA [Veeslelein],57.5 nM
4,CGGAGACAUGAGGAUCACCCAUGUGAGAAGAGGCGAGGAUAUCGAAAGAAAGAAGAGAAACGAGAAGGCGCGAGAC [salish99-SS1-077],17.7 nM
5,AGAAAUAAAAGAGAGGAUAUCCAAAAGAAAACAUGAGGAUCACCCAUGUACACGAAAGUGAAAUGGGAGAAGGCUCAAAAUAAAG [80% More Helter Skelter 2 + Hairpin],121 nM
6,AAAAAACAUGAGGAUCACCCAUGUCGAAAGACAUGAGGAUAUGUACAGACUUCGGUCUGUACAGAAGGCAUGUAAA [SS1 - 1016],104 nM
7,ACUACACAUGAGGAUCACCCAUGUCAGGCCGGACUAGGAUAUUAUAAACCAGAGUAAAAAUAAGAAGGAGUAGGAA [JR_SS001_Sub310],39.2 nM
8,CGAAGACAUGAGGAUCACCCAUGUGGGAAUAUGGGAGGAUAUACAAAGACGAGAGUCAGAGUAGAAGGCCUAGGAA [salish99-ss1-104],23.3 nM
9,AAGAAACAUGAGGAUCACCCAUGUAGAAAUAUGGGAGGAUAUACGAAGACGAAAGUCAAAGUAGAAGGCCUAAGAA [Mat - Same State 1 - Eli mod - D105],36.3 nM
10,AUUCCAAAUAGUCAGGAUAUCAGGAGUAAGACAUGAGGAUCACCCAUGUACUUAGUAAAAGUAACUGAGAAGGGACAGGGUGUAA [JR_SS002_Sub406],30 nM
11,GCGGUGUAGGUACAGGAUAUGUUGCUCGUAACAUGAGGAUCACCCAUGUACCUAUGAGAUUAAAUGCAGAAGGGUGCACACCACG [Zaalaes],21.5 nM
12,"AAACCACAUGAGGAUCACCCAUGUAAAAAUAACGCAGGAUAUGGAAACACGAAAGUGAAACCAGAAGGGUGAAAAG [77%, Mat - Mod of Eli, 15]",24.5 nM
13,"AAAAUAAAAAGGUAGGAUAUGGGUAAGUCUACAUGAGGAUCACCCAUGUAAUAAAAAGAAAAAAACCAGAAGGACCAAAAUAAAA [72%, More Wateronthemoon, 11]",20.2 nM
14,UGUAGGAAGAGAGAGGAUAUCCAAAGGAAAACAUGAGGAUCACCCAUGUAAAAGGUAGGAAAUUGGGAGAAGGCUCAAGAGAGAG [salish99-ss2-082],29 nM
15,AAAAUACAUGAGGAUCACCCAUGUGAAAAUAUGGGAGGAUAUACCGAAAAAAAAAAAACGGUAGAAGGCCCUAAAA [SS! 1 MT 6],17.9 nM
16,AAAAAACAUGAGGAUCACCCAUGUAUGAUAACAUCAGGAUAUUGGCUUGACUAUGUCUUACAAGAAGGGAUGAAAA [Same State 1.3e (Same State 1 - Omei 2 )],28.3 nM
17,GAAAAACAUGAGGAUCACCCAUGUGAGAAUAUGGGAGGAUAUUCAAAGACGAGAGUCAAAGAAGAAGGCCUAAAAG [Mat - Same State 1 - Eli mod - 38],29.3 nM
18,GAAAAACAUGAGGAUCACCCAUGUAGAAAUAUGGGAGGAUAUACAAAGACGAAAGUCAAAGUAGAAGGCCUAAAAG [Mat - Same State 1 - Rerun of Eli mod - D1],23.9 nM
19,AAAGACAUAGUGCAGGAUAUGGUAAUAGUCACAUGAGGAUCACCCAUGUUCUUUUAUAAGAACGAUCAGAAGGGCGGUAAAAAAA [SameState2 Malc#13],359 nM
20,AAAAAAUAAAAAAAGGAUAUAAAUCCUAGAACAUGAGGAUCACCCAUGUACUAGGAAAAAAUAAAAAAGAAGGAAAAAUAAAAAA [SS2: MS2 19],18.1 nM
21,AAAUAACAUGAGGAUCACCCAUGUUACAACAUUACAGGAUAUGUGGGUGAAAAUAGCAUGACAGAAGGGUACUGUA [SameState1 Malc#34],479 nM
22,GAAAAACAUGAGGAUCACCCAUGUGUAAACACGGGAGGAUAUACGAAGACGUAAGUCAAAGUAGAAGGCCUAAAAG [Garnet 40],18.9 nM

row,Sequence,apparent KD of MS2 coat protein
1,AAGAAAGAAACAUAGGAUAUCAAGGAUAUAACAUGAGGAUCACCCAUGUAAAUACGAAAGUAUAAUGAGAAGGAUGGAUGAUCUUC [Meechl MS2 SS2],28.9 nM
2,CGAAAGGAGAGAGAGGAUAUCCAAAGGAAAACAUGAGGAUCACCCAUGUAGAAGGUAGGAGAUUGGGAGAAGGCUCAAGACAGAG [salish99-ss2-143(!!!!)],21.3 nM
3,GGAGCCGACACUGAGGAUAUUCAUAUUAAAACAUGAGGAUCACCCAUGUAGGCCAGAAGGCCUUGGGAGAAGGCAGGCCGGCUCG [Inxebi],19.3 nM
4,AUACUACAUGAGGAUCACCCAUGUUGAAAUAUGGAAGGAUAUACGUAGUAAAAUAACUACGUAGAAGGUCCAGAAA [SS1 MT 22],18.7 nM
5,CGCGGGCCCGGGCAGGAUAUCCGGCCUCGGACAUGAGGAUCACCCAUGUGGCCGAAAGGCCGGUGGGAGAAGGGCCCGGGCCCGC,20.5 nM
6,AUAUAUAUAAGGUAGGAUAUCCUAAAGUAAACAUGAGGAUCACCCAUGUAAAGAAAGAAACUCAUGGAGAAGGACCAUAUAUAUA,15.5 nM
7,"AGAAAUAAAUGAGAGGAUAUCCAAAAGAAAACAUGAGGAUCACCCAUGUAAAAGAAAAUAAAGUGGGAGAAGGCUCGAAAUAAAG [80%, More Helter Skelter 2]",23.3 nM
8,AAAAAACAUGAGGAUCACCCAUGUCUUUUGACAUGAGGAUAUGUACAGACUUCGGUCUGUACAGAAGGCAUGUAAA [SS1 - 1028],31.1 nM
9,AUAAGACAUGAGGAUCACCCAUGUAUAAGAGCAUGAGGAUAUAUGAAAAGUAAUAGGAGAAUAGAAGGCAUAGUUG [JR_SS001_Sub1220],80.7 nM
10,AACAAUCUAUCUGAGGAUAUGUGUCAAAAGACAUGAGGAUCACCCAUGUAAAAACAUGAAAAGACACAGAAGGCAGAUAGAUUGA [SS2: 1153],21.4 nM
11,CUAAUUGCAUAUUAGGAUAUACACUGGGUGACAUGAGGAUCACCCAUGUAAAAGCACACUCGGUAGUAGAAGGAGUGUGCAAGUC [Iserso],36 nM
12,AAUACACAUGAGGAUCACCCAUGUAGAAAGAAGGCAGGAUAUCAGAUCCACAUGUGAUAAUGAGAAGGGCCAAUAU [SS 1 Tesla 10],21.9 nM
13,AAAAAACAUGAGGAUCACCCAUGUAAAAAAAACACAGGAUAUCCAAAAAAAAAAAAAAAAGGAGAAGGGUGAAAAA [Nob - Jieux - Same State 1],22 nM
14,AAUAAUUAUAUCGAGGAUAUCGGUAAUAAGACAUGAGGAUCACCCAUGUAAUAAGGUUAAAUAAACGAGAAGGCGAAGGGUGAAA [JR_SS002_Sub006],80.9 nM
15,GAAAUAAAAACACAGGAUAUCCAAAAGAAAACAUGAGGAUCACCCAUGUAAAGAAAAUAAAAAUGGGAGAAGGGUGAAAAUAAAA [Mat - Same State 2 - JL mod - D26],15.8 nM
16,GAAAAACAUGAGGAUCACCCAUGUAAGAUAAACACAGGAUAUGCGAAAAUAAACAAAGAAGCAGAAGGGUGAAGAA [Mat - Same State 1 - Tesla mod - 72],23 nM
17,UAUAGACAUGAGGAUCACCCAUGUAGAAUUAUGGGAGGAUAUACAAAGACGAGAGUCAGAGUAGAAGGCCUAGGAC [salish99-ss1-155],22.6 nM
18,AAUAUAUUAAGUGAGGAUAUCGAGGAAAAAACAUGAGGAUCACCCAUGUGGGAAACAUGGUAGGGUGAGAAGGCACUUAAUAUAU [Samwise Clockwise 24 - Jieux - Same State 2],132 nM
19,AGAAAGAAAAGAGAGGAUAUCUAAAAGAAAACAUGAGGAUCACCCAUGUAAAAGAAAAGAAAAUGGGAGAAGGCUCAUGAGAAAG [JL Skelter Mod 7 In the Red],101 nM
20,GAGGACCUAGGAUAGGAUAUGUGAAUAAUUACAUGAGGAUCACCCAUGUCCAUUUAUAUGGGAACAUAGAAGGGUUUUGGUUAUC [SameState2 Malc#39],232 nM
21,AACCAACAUGAGGAUCACCCAUGUCAACCCAAGGCAGGAUAUGCGAGAAUAACAAUGGGAGCAGAAGGGCCGACCU [ss1-3],40 nM
